Results taken from PMC7822592, “The half-life of the bone-derived hormone osteocalcin is regulated through O-glycosylation in mice, but not in humans” (eLife, 2020).
No end group written: not given here. O‑glycan = not defined here

System: INS-1 832/3 cells
Assay: OCN stability in INS-1 832/3 cell culture media
Format: in vitro ADME, rat
Conditions: 8 hours at 4°C without cells, ELISA

ucOCN: Non-glycosylated uncarboxylated mouse osteocalcin produced in bacteria (YLGASVPSPDPLEPTREQCELNPACDELSDQYGLKTAYKRIYGITI; ends and bridges not checked; cysteine pairing not given here; UniProt P86546 50-95, looked up)
OCN in stimulation media (replicate 1): 0.15 ng/mL | OCN in stimulation media (replicate 2): 0.18 ng/mL | OCN in stimulation media (replicate 3): 0.17 ng/mL

O-gly ucOCN: O-glycosylated uncarboxylated mouse osteocalcin produced and purified from HEK293 as Fc fusion, released by thrombin (YLGASVPS(O‑glycan)PDPLEPTREQCELNPACDELSDQYGLKTAYKRIYGITI; ends and bridges not checked; also: O-glycosylated (HexNAc, Hex, NANA); UniProt P86546 50-95, looked up)
OCN in stimulation media (replicate 1): 0.15 ng/mL | OCN in stimulation media (replicate 2): 0.15 ng/mL | OCN in stimulation media (replicate 3): 0.14 ng/mL
